Reference: article PMC9352680, “A comprehensive thermodynamic model for RNA binding by the Saccharomyces cerevisiae Pumilio protein PUF4”
Where a chain is given by its changes, count along the chain named. Names may count otherwise.

T1: PUF4 RNA-binding domain (Saccharomyces cerevisiae, UniProt P25339 537-888)
T1 sequence: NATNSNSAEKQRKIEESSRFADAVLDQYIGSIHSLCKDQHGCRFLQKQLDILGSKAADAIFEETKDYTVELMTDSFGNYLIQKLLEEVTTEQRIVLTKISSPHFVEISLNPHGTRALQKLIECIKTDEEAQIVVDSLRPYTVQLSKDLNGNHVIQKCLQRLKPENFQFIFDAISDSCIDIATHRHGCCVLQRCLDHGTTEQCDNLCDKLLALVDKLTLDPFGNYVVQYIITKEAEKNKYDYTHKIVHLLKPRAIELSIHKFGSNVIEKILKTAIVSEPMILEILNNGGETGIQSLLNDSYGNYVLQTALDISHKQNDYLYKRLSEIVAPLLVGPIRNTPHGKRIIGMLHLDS

B1: Ic_S4_P3E.1_K3.1_C3.1_H3.1_A3.1_[T5C]_[A6T]_F3.1_[T7A]_[A8C]_T3.1 (ssRNA)
RNA: UUUGACAACUGAUCGUUCUUUCUUGUACUACUUCUUUCUCGAUCAGUUGUCUUU
B2: Ic_S4_P3E.1_K3.1_C3.1_H3.1_A3.1_[T5C]_[A6G]_F3.1_[T7C]_[A8G]_T3.1 (ssRNA)
RNA: B1 RNA with U29G, A30C, C31G
B3: Ic_S4_P3E.1_K3.1_C3.1_H3.1_A3.1_[T5C]_[A6C]_F3.1_[T7A]_[A8C]_T3.1 (ssRNA)
RNA: B1 RNA with U29C
B4: Ic_S4_P3E.1_K3.1_C3.1_H3.1_A3.1_[T5G]_[A6C]_F3.1_[T7C]_[A8C]_T3.1 (ssRNA)
RNA: B1 RNA with C28G, U29C, A30C
B5: Ic_S4_P3E.1_K3.1_C3.1_H3.1_A3.1_[T5G]_[A6T]_F3.1_[T7A]_[A8C]_T3.1 (ssRNA)
RNA: B1 RNA with C28G
B6: Ic_S4_P3E.1_K3.1_C3.1_H3.1_A3.1_[T5G]_[A6C]_F3.1_[A8C]_T3.1 (ssRNA)
RNA: B1 RNA with C28G, U29C, A30U
B7: Ic_S4_P3E.1_K3.1_C3.1_H3.1_A3.1_[T5G]_[A6C]_F3.1_[T7A]_[A8C]_T3.1 (ssRNA)
RNA: B1 RNA with C28G, U29C
B8: Ic_S4_P3E.1_K3.1_C3.1_H3.1_A3.1_[T5C]_[A6T]_F3.1_[A8G]_T3.1 (ssRNA)
RNA: B1 RNA with A30U, C31G
B9: Ic_S4_P3E.1_K3.1_C3.1_H3.1_A3.1_[T5C]_[A6C]_F3.1_[T7C]_T3.1 (ssRNA)
RNA: B1 RNA with U29C, A30C, C31A
B10: Ic_S4_P3E.1_K3.1_C3.1_H3.1_A3.1_[T5C]_[A6G]_F3.1_[T7G]_[A8C]_T3.1 (ssRNA)
RNA: B1 RNA with U29G, A30G
B11: Ic_S4_P3E.1_K3.1_C3.1_H3.1_A3.1_[T5G]_[A6C]_F3.1_[T7G]_[A8C]_T3.1 (ssRNA)
RNA: B1 RNA with C28G, U29C, A30G
B12: Ic_S4_P3E.1_K3.1_C3.1_H3.1_A3.1_[T5C]_[A6T]_F3.1_[T7C]_T3.1 (ssRNA)
RNA: B1 RNA with A30C, C31A
B13: Ic_S4_P3E.1_K3.1_C3.1_H3.1_A3.1_[T5C]_[A6C]_F3.1_[T7C]_[A8T]_T3.1 (ssRNA)
RNA: B1 RNA with U29C, A30C, C31U
B14: Ic_S4_P3E.1_K3.1_C3.1_H3.1_A3.1_[T5G]_[A6C]_F3.1_[T7A]_[A8T]_T3.1 (ssRNA)
RNA: B1 RNA with C28G, U29C, C31U
B15: Ic_S4_P3E.1_K3.1_C3.1_H3.1_A3.1_[T5C]_[A6T]_F3.1_[T7C]_[A8T]_T3.1 (ssRNA)
RNA: B1 RNA with A30C, C31U
B16: Ic_S4_P3E.1_K3.1_C3.1_H3.1_A3.1_[T5G]_[A6C]_F3.1_[T7C]_T3.1 (ssRNA)
RNA: B1 RNA with C28G, U29C, A30C, C31A
B17: Ic_S4_P3E.1_K3.1_C3.1_H3.1_A3.1_[T5G]_[A6T]_F3.1_[T7G]_[A8T]_T3.1 (ssRNA)
RNA: B1 RNA with C28G, A30G, C31U
B18: Ic_S4_P3E.1_K3.1_C3.1_H3.1_A3.1_[T5C]_[A6T]_F3.1_[T7G]_[A8G]_T3.1 (ssRNA)
RNA: B1 RNA with A30G, C31G
B19: Ic_S4_P3E.1_K3.1_C3.1_H3.1_A3.1_[T5C]_[A6C]_F3.1_[A8T]_T3.1 (ssRNA)
RNA: B1 RNA with U29C, A30U, C31U
B20: Ic_S4_P3E.1_K3.1_C3.1_H3.1_A3.1_[T5C]_[A6T]_F3.1_[T7C]_[A8C]_T3.1 (ssRNA)
RNA: B1 RNA with A30C
B21: Ic_S4_P3E.1_K3.1_C3.1_H3.1_A3.1_[T5C]_[A6C]_F3.1_[T7A]_[A8T]_T3.1 (ssRNA)
RNA: B1 RNA with U29C, C31U
B22: Ic_S4_P3E.1_K3.1_C3.1_H3.1_A3.1_[T5G]_[A6T]_F3.1_[T7G]_[A8C]_T3.1 (ssRNA)
RNA: B1 RNA with C28G, A30G
B23: Ic_S4_P3E.1_K3.1_C3.1_H3.1_A3.1_[T5C]_[A6T]_F3.1_[A8T]_T3.1 (ssRNA)
RNA: B1 RNA with A30U, C31U
B24: Ic_S4_P3E.1_K3.1_C3.1_H3.1_A3.1_[T5G]_[A6C]_F3.1_[T7A]_[A8G]_T3.1 (ssRNA)
RNA: B1 RNA with C28G, U29C, C31G
B25: Ic_S4_P3E.1_K3.1_C3.1_H3.1_A3.1_[T5C]_[A6T]_F3.1_[T7A]_T3.1 (ssRNA)
RNA: B1 RNA with C31A
B26: Ic_S4_P3E.1_K3.1_C3.1_H3.1_A3.1_[T5C]_F3.1_[T7G]_[A8T]_T3.1 (ssRNA)
RNA: B1 RNA with U29A, A30G, C31U
B27: Ic_S4_P3E.1_K3.1_C3.1_H3.1_A3.1_[T5C]_[A6T]_F3.1_[T7G]_[A8C]_T3.1 (ssRNA)
RNA: B1 RNA with A30G
B28: Ib_S1_P4E.1_K4.1_C4.1_H4.1_[G2A]_A4.1_F4.1_[A9C]_T4.1 (ssRNA)
RNA: UCUCUUUAUAUAUUCUCUCUU
B29: Ib_S1_P4E.1_K4.1_C4.1_H4.1_[G2A]_A4.1_F4.1_[A9G]_T4.1 (ssRNA)
RNA: UCUCUUUAUAUAUUGUCUCUU

molecular target: T1, PUF4 RNA-binding domain; experiment: Mg; RNA-MaP; 20 mM Na-HEPES pH 7.4, 30 mM KOAc, 0.75 mM MgCl2, 0.1% Tween-20, 5% glycerol, 0.1 mg/mL BSA, 2 mM DTT; 25 C; 0.0125-409.6 nM protein; conditions: tags: N-His6-TEV cleaved; C-SNAP kept, Cy3B-labelled; label: tethered on chip by stalled RNA polymerase

Point of comparison: B2, Kd 908 nM. Against it:
- B1 — 10-fold lower, 89.8 nM
- B3 — 11-fold lower, 79.7 nM
- B4 — within 1.5-fold, 648 nM
- B5 — 2.2-fold lower, 404 nM
- B6 — 4.7-fold lower, 192 nM
- B7 — 3.7-fold lower, 243 nM
- B8 — 8.8-fold lower, 103 nM
- B9 — 1.9-fold lower, 487 nM
- B10 — within 1.5-fold, 1030 nM
- B11 — 1.9-fold higher, 1710 nM
- B12 — 8.4-fold lower, 108 nM
- B13 — 64-fold lower, 14.2 nM
- B14 — 25-fold lower, 35.8 nM
- B15 — 74-fold lower, 12.3 nM
- B16 — within 1.5-fold, 616 nM
- B17 — 9.1-fold lower, 100 nM
- B18 — 2-fold higher, 1840 nM
- B19 — 68-fold lower, 13.4 nM
- B20 — 7.6-fold lower, 120 nM
- B21 — 180-fold lower, 5.15 nM
- B22 — 1.8-fold lower, 506 nM
- B23 — 90-fold lower, 10.1 nM
- B24 — within 1.5-fold, 836 nM
- B25 — 20-fold lower, 46.5 nM
- B26 — 59-fold lower, 15.3 nM
- B27 — 2.1-fold lower, 442 nM
- B28 — within 1.5-fold, 857 nM
- B29 — 2.7-fold lower, 334 nM
